Data on 1 protein can be found in paper doi:10.1101/841569 (bioRxiv, 2019).

The series deals with the molecule itself. Nature of the series: crystal structure.

B1: Mycobacterium tuberculosis MenD (2-succinyl-5-enolpyruvyl-6-hydroxy-3-cyclohexadiene-1-carboxylate synthase, SEPHCHC synthase) (enzyme)
chain: MNPSTTQARVVVDELIRGGVRDVVLCPGSRNAPLAFALQDADRSGRIRLHVRIDERTAGYLAIGLAIGAGAPVCVAMTSGTAVANLGPAVVEANYARVPLIVLSANRPYELLGTGANQTMEQLGYFGTQVRASISLGLAEDAPERTSALNATWRSATCRVLAAATGARTANAGPVHFDIPLREPLVPDPEPLGAVTPPGRPAGKPWTYTPPVTFDQPLDIDLSVDTVVISGHGAGVHPNLAALPTVAEPTAPRSGDNPLHPLALPLLRPQQVIMLGRPTLHRPVSVLLADAEVPVFALTTGPRWPDVSGNSQATGTRAVTTGAPRPAWLDRCAAMNRHAIAAVREQLAAHPLTTGLHVAAAVSHALRPGDQLVLGASNPVRDVALAGLDTRGIRVRSNRGVAGIDGTVSTAIGAALAYEGAHERTGSPDSPPRTIALIGDLTFVHDSSGLLIGPTEPIPRSLTIVVSNDNGGGIFELLEQGDPRFSDVSSRIFGTPHDVDVGALCRAYHVESRQIEVDELGPTLDQPGAGMRVLEVKADRSSLRQLHAAIKAAL
One may read the stoichiometry N as the number of molecules, sites or subunits per partner or assembly. In the case of B1, the “stoichiometry N” value is 4.
